Results on 14 molecules are retold here after patent publication US20100260668A1 (published 2010).

The labels stand for the following.
B1: DVD711 (bispecific antibody, human IgG1, kappa)
heavy: not shown
light: DIQMTQSPSSVSASVGDRVTITCRASQGISSWLAWYQQKPGKAPNLLIYEASSLQSGVPSRFGGSGSGTDFTLTISSLQPEDFATYYCQQANGFPWTFGQGTKVEIKRTVAAPDIQMTQSPSSLSASVGDRVTITCRASQVIRRSLAWYQQKPGKAPKLLIYAASNLASGVPSRFSGSGSGTDFTLTISSLQPEDFATYYCQQSNTSPLTFGQGTKVEIKRTVAAPSVFIFPPSDEQLKSGTASVVCLLNNFYPREAKVQWKVDNALQSGNSQESVTEQDSKDSTYSLSSTLTLSKADYEKHKVYACEVTHQGLSSPVTKSFNRGEC
notes: DVD-Ig; N-term VD AB012 (HGF), C-term VD AB071 (VEGF); HC linker short, LC linker short; vectors V1/V2
B2: DVD675 (bispecific antibody, human IgG1, kappa)
heavy: not shown
light: DIQMTQSPSSLSASVGDRVTITCKASENVVSYVSWYQQKPGKAPKLLIYGASNRNTGVPSRFSGSGSGTDFTLTISSLQPEDFATYYCGQSYNYPYTFGQGTKLEIKRTVAAPDIQMTQSPSSLSASVGDRVTITCRASQVIRRSLAWYQQKPGKAPKLLIYAASNLASGVPSRFSGSGSGTDFTLTISSLQPEDFATYYCQQSNTSPLTFGQGTKVEIKRTVAAPSVFIFPPSDEQLKSGTASVVCLLNNFYPREAKVQWKVDNALQSGNSQESVTEQDSKDSTYSLSSTLTLSKADYEKHKVYACEVTHQGLSSPVTKSFNRGEC
notes: DVD-Ig; N-term VD AB079 (HGF), C-term VD AB071 (VEGF); HC linker long, LC linker short; vectors V1/V2
B3: DVD667 (bispecific antibody, human IgG1, kappa)
heavy: not shown
light: DIQMTQSPSSLSASVGDRVTITCKASENVVSYVSWYQQKPGKAPKLLIYGASNRNTGVPSRFSGSGSGTDFTLTISSLQPEDFATYYCGQSYNYPYTFGQGTKLEIKRTVAAPSVFIFPPDIQMTQSPSSLSASVGDRVTITCRASQDVSTAVAWYQQKPGKAPKLLIYSASFLYSGVPSRFSGSGSGTDFTLTISSLQPEDFATYYCQQSYTTPPTFGQGTKVEIKRTVAAPSVFIFPPSDEQLKSGTASVVCLLNNFYPREAKVQWKVDNALQSGNSQESVTEQDSKDSTYSLSSTLTLSKADYEKHKVYACEVTHQGLSSPVTKSFNRGEC
notes: DVD-Ig; HC linker long, LC linker long; vectors V1/V2
B4: DVD679 (bispecific antibody, human IgG1, kappa)
heavy: not shown
light: B3 light
notes: DVD-Ig; HC linker short, LC linker long; vectors V1/V2
B5: DVD669 (bispecific antibody, human IgG1, kappa)
heavy: not shown
light: DIQMTQSPSSLSASVGDRVTITCKASENVVSYVSWYQQKPGKAPKLLIYGASNRNTGVPSRFSGSGSGTDFTLTISSLQPEDFATYYCGQSYNYPYTFGQGTKLEIKRTVAAPSVFIFPPDIQMTQSPSSLSASVGDRVTITCRASQVIRRSLAWYQQKPGKAPKLLIYAASNLASGVPSRFSGSGSGTDFTLTISSLQPEDFATYYCQQSNTSPLTFGQGTKVEIKRTVAAPSVFIFPPSDEQLKSGTASVVCLLNNFYPREAKVQWKVDNALQSGNSQESVTEQDSKDSTYSLSSTLTLSKADYEKHKVYACEVTHQGLSSPVTKSFNRGEC
notes: DVD-Ig; N-term VD AB079 (HGF), C-term VD AB071 (VEGF); HC linker long, LC linker long; vectors V1/V2
B6: DVD681 (bispecific antibody, human IgG1, kappa)
heavy: not shown
light: B5 light
notes: DVD-Ig; N-term VD AB079 (HGF), C-term VD AB071 (VEGF); HC linker short, LC linker long; vectors V1/V2
B7: DVD709 (bispecific antibody, human IgG1, kappa)
heavy: not shown
light: DIQMTQSPSSVSASVGDRVTITCRASQGISSWLAWYQQKPGKAPNLLIYEASSLQSGVPSRFGGSGSGTDFTLTISSLQPEDFATYYCQQANGFPWTFGQGTKVEIKRTVAAPDIQMTQSPSSLSASVGDRVTITCRASQDVSTAVAWYQQKPGKAPKLLIYSASFLYSGVPSRFSGSGSGTDFTLTISSLQPEDFATYYCQQSYTTPPTFGQGTKVEIKRTVAAPSVFIFPPSDEQLKSGTASVVCLLNNFYPREAKVQWKVDNALQSGNSQESVTEQDSKDSTYSLSSTLTLSKADYEKHKVYACEVTHQGLSSPVTKSFNRGEC
notes: DVD-Ig; HC linker short, LC linker short; vectors V1/V2
B8: DVD661 (bispecific antibody, human IgG1, kappa)
heavy: not shown
light: DIQMTQSPSSLSASVGDRVTITCKASENVVSYVSWYQQKPGKAPKLLIYGASNRNTGVPSRFSGSGSGTDFTLTISSLQPEDFATYYCGQSYNYPYTFGQGTKLEIKRTVAAPDIQMTQSPSSLSASVGDRVTITCRASQDVSTAVAWYQQKPGKAPKLLIYSASFLYSGVPSRFSGSGSGTDFTLTISSLQPEDFATYYCQQSYTTPPTFGQGTKVEIKRTVAAPSVFIFPPSDEQLKSGTASVVCLLNNFYPREAKVQWKVDNALQSGNSQESVTEQDSKDSTYSLSSTLTLSKADYEKHKVYACEVTHQGLSSPVTKSFNRGEC
notes: as for B7
B9: DVD673 (bispecific antibody, human IgG1, kappa)
heavy: not shown
light: B8 light
notes: DVD-Ig; HC linker long, LC linker short; vectors V1/V2
B10: DVD657 (bispecific antibody, human IgG1, kappa)
heavy: not shown
light: DIQMTQSPSSVSASVGDRVTITCRASQGISSWLAWYQQKPGKAPNLLIYEASSLQSGVPSRFGGSGSGTDFTLTISSLQPEDFATYYCQQANGFPWTFGQGTKVEIKRTVAAPSVFIFPPDIQMTQSPSSLSASVGDRVTITCRASQVIRRSLAWYQQKPGKAPKLLIYAASNLASGVPSRFSGSGSGTDFTLTISSLQPEDFATYYCQQSNTSPLTFGQGTKVEIKRTVAAPSVFIFPPSDEQLKSGTASVVCLLNNFYPREAKVQWKVDNALQSGNSQESVTEQDSKDSTYSLSSTLTLSKADYEKHKVYACEVTHQGLSSPVTKSFNRGEC
notes: DVD-Ig; N-term VD AB012 (HGF), C-term VD AB071 (VEGF); HC linker short, LC linker long; vectors V1/V2
B11: DVD567 (bispecific antibody, human IgG1, kappa)
heavy: not shown
light: AIQMTQSSSSFSVSLGDRVTITCKASEDIYNRFAWYQQKPGNAPRLLISGAASLEAGVPSRFSGSGSGQDYTLSITSLQTEDVATYYCQQYWSTPWTFGGGTKLEIKRTVAAPSVFIFPPDIQMTQSPSSLSASVGDRVTITCRASQDVSTAVAWYQQKPGKAPKLLIYSASFLYSGVPSRFSGSGSGTDFTLTISSLQPEDFATYYCQQSYTTPPTFGQGTKVEIKRTVAAPSVFIFPPSDEQLKSGTASVVCLLNNFYPREAKVQWKVDNALQSGNSQESVTEQDSKDSTYSLSSTLTLSKADYEKHKVYACEVTHQGLSSPVTKSFNRGEC
notes: HC linker short, LC linker long; also called DVD-Ig DVD567
B12: DVD545 (bispecific antibody, human IgG1, kappa)
heavy: not shown
light: AIQMTQSSSSFSVSLGDRVTITCKASEDIYNRFAWYQQKPGNAPRLLISGAASLEAGVPSRFSGSGSGQDYTLSITSLQTEDVATYYCQQYWSTPWTFGGGTKLEIKRTVAAPDIQMTQSPSSLSASVGDRVTITCRASQVIRRSLAWYQQKPGKAPKLLIYAASNLASGVPSRFSGSGSGTDFTLTISSLQPEDFATYYCQQSNTSPLTFGQGTKVEIKRTVAAPSVFIFPPSDEQLKSGTASVVCLLNNFYPREAKVQWKVDNALQSGNSQESVTEQDSKDSTYSLSSTLTLSKADYEKHKVYACEVTHQGLSSPVTKSFNRGEC
notes: outer AB074 (PlGF), inner AB071 (VEGF); HC linker short, LC linker short; also called DVD-Ig DVD545
B13: DVD553 (bispecific antibody, human IgG1, kappa)
heavy: not shown
light: AIQMTQSSSSFSVSLGDRVTITCKASEDIYNRFAWYQQKPGNAPRLLISGAASLEAGVPSRFSGSGSGQDYTLSITSLQTEDVATYYCQQYWSTPWTFGGGTKLEIKRTVAAPSVFIFPPDIQMTQSPSSLSASVGDRVTITCRASQVIRRSLAWYQQKPGKAPKLLIYAASNLASGVPSRFSGSGSGTDFTLTISSLQPEDFATYYCQQSNTSPLTFGQGTKVEIKRTVAAPSVFIFPPSDEQLKSGTASVVCLLNNFYPREAKVQWKVDNALQSGNSQESVTEQDSKDSTYSLSSTLTLSKADYEKHKVYACEVTHQGLSSPVTKSFNRGEC
notes: outer AB074 (PlGF), inner AB071 (VEGF); HC linker long, LC linker long; also called DVD-Ig DVD553
B14: DVD550 (bispecific antibody, human IgG1, kappa)
heavy: not shown
light: DIQMTQSPSSLSASVGDRVTITCSASQDISNYLNWYQQKPGKAPKVLIYFTSSLHSGVPSRFSGSGSGTDFTLTISSLQPEDFATYYCQQYSTVPWTFGQGTKVEIKRTVAAPSVFIFPPAIQMTQSSSSFSVSLGDRVTITCKASEDIYNRFAWYQQKPGNAPRLLISGAASLEAGVPSRFSGSGSGQDYTLSITSLQTEDVATYYCQQYWSTPWTFGGGTKLEIKRTVAAPSVFIFPPSDEQLKSGTASVVCLLNNFYPREAKVQWKVDNALQSGNSQESVTEQDSKDSTYSLSSTLTLSKADYEKHKVYACEVTHQGLSSPVTKSFNRGEC
notes: HC linker long, LC linker long; also called DVD-Ig DVD550

T3 sequence (P15692 other isoform, or with tags, fused parts or gaps limits assumed): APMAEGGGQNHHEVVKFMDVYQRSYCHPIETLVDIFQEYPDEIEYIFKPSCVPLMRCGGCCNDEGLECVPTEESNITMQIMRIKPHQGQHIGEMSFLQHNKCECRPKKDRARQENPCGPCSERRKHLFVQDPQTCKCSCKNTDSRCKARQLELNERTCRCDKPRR

The first assay deals with T1, HGF-His tag (UniProt P14210 32-728).
T1 construct: Bought antigen coated on the ELISA plate; not shown: His tag
T1 sequence (P14210 32-728 limits assumed): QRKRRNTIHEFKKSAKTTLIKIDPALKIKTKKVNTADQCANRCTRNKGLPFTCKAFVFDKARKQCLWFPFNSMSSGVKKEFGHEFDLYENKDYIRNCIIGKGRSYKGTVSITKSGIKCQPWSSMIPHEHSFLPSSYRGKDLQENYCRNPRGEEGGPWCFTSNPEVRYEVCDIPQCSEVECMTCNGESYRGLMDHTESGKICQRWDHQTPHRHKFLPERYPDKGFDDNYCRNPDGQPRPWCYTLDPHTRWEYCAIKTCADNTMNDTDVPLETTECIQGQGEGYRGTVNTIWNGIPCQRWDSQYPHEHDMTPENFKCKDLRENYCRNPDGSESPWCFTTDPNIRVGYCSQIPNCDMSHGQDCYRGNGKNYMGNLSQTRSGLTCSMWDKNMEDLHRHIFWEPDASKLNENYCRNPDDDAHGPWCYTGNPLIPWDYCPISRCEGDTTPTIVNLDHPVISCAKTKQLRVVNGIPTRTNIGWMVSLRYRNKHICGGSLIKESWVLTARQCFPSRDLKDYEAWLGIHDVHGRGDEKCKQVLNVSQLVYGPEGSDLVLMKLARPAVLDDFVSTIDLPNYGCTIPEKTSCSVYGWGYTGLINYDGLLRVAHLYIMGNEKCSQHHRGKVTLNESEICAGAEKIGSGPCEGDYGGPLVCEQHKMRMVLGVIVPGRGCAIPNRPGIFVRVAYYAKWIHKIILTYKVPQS
In words: direct bind ELISA (N-term VD).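 Note: ELISA screen of antibodies for binding to plate-immobilized target antigen.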
In the case of B1, it took 0.00132 µM to reach a half-maximal effect (EC50). As for B2, the EC50 was found to be 0.00048 µM. Molecule B3 showed an EC50 of 0.00033 µM.

The molecule B4 displayed an EC50 of 0.00032 µM. B5: the EC50 was found to be 0.00029 µM. As for B6, the EC50 came out at 0.00027 µM. As for B7, the response was half-maximal at 0.00014 µM (EC50).

Regarding B8, a half-maximal response (EC50) required 0.0007 µM. Against the preceding molecule, the EC50 is about 5-fold higher.

B9 gave an EC50 of 0.0004 µM. With B10, the EC50 turned out to be 0.00031 µM.

The next assay deals with T2, PlGF (UniProt P49763-2 21-149, limits assumed).
T2 construct: bought antigen coated on the ELISA plate; also called Placental GF
T2 sequence (looked up): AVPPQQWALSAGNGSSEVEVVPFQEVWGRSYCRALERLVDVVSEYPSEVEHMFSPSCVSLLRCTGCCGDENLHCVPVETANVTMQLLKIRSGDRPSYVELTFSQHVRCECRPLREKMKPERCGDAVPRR
In words: direct bind ELISA, N-terminal VD.
For the molecule B11, the EC50 came out at 0.34 µM. B12 returned an EC50 of 0.0988 µM. Still for that read-out and setting: the result for B13 reads 66.3 µM.

The target in another assay is T2, PlGF. In words: direct bind ELISA, C-terminal VD.
Description: (§1) Enzyme Linked Immunosorbent Assays to screen for antibodies that bind a desired target antigen were performed as follows. […] Plates were washed four times with PBS containing 0.02% Tween 20. Plates were blocked by the addition of 300 μL/well blocking solution (non-fat dry milk powder, various retail suppliers, diluted to 2% in PBS) for ½ hour at room temperature. Plates were washed four times after blocking with PBS containing 0.02% Tween 20.
(§2) Plates were washed 4 times with PBS containing 0.02% Tween 20.
In turn, B14 returned an EC50 of 0.146 µM. In other words, the sub-micromolar range.

Another assay concerns the target T3, VEGF 1-165 aa (UniProt P15692 27-191).
T3 construct: Bought antigen coated on the ELISA plate
In words: direct bind ELISA (C-term VD).
Description: as §1
Alternatively, one hundred microliters per well of 10 μg/ml of Histidine (His) tagged desired target antigen (R&D Systems, Minneapolis, Minn.) was added to ELISA plates coated with monoclonal mouse anti-polyHistidine antibody as described above and incubated for 1 hour at room temperature. Wells were washed four times with PBS containing 0.02% Tween 20.
as §2
In the case of B1, the EC50 was 0.166 µM. Still for that read-out and setting: the result for B2 reads 5.77 µM; that for B3, 0.0513 µM; that for B4, 0.0924 µM.

On to B5, for which the EC50 came out at 1.66 µM. Against the preceding molecule, the EC50 is about 18-fold higher. Consider B6, for which the midpoint of the response, the EC50, lay at 2.16 µM. The same measure, in the same setting: the result for B7 reads 1.37 µM; that for B8, 0.566 µM. The molecule B9 came in with a concentration giving a half-maximal response (EC50) of 0.0653 µM. This EC50 lies about 8.7-fold lower than the previous one. In turn, B10 registered an EC50 of 0.358 µM.
